The target in assay [1] is T1, recombinant mouse TfR-1 (mouse, UniProt Q62351 89-763).
T1 construct: Recombinant protein coated at 1 ug/ml in the phage ELISA; also called mTfR1; mouse transferrin receptor-1
As to the kind of experiment: phage ELISA. (In an ELISA, binding on a coated surface is turned into a signal by an enzyme label.)

Assay [2] has as its target T2, recombinant human TfR-1 (human, UniProt P02786 89-760).
T2 construct: Recombinant protein coated at 1 ug/ml in the phage ELISA; also called hTfR1; human transferrin receptor-1
As to the kind of experiment: phage ELISA.

Residue numbers refer to the chain shown, from its start.

T1 sequence (Q62351 89-763 limits assumed): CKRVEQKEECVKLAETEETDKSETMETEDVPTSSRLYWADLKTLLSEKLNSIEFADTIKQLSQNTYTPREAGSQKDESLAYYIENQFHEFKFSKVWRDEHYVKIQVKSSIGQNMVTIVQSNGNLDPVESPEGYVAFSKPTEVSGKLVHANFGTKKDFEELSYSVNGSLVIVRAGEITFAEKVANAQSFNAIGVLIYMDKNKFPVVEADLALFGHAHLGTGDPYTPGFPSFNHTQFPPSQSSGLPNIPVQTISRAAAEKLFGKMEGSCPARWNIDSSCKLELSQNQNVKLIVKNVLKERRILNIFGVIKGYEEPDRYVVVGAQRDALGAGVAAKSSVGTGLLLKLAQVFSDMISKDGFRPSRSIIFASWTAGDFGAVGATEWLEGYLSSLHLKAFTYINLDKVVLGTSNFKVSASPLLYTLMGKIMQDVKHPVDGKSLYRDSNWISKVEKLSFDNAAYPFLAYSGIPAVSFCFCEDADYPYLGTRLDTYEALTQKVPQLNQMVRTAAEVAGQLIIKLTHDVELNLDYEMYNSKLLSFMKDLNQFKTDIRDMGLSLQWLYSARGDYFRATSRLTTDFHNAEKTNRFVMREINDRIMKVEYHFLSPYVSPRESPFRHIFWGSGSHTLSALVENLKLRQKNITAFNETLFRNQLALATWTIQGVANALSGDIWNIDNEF
T2 sequence (P02786 89-760 limits assumed): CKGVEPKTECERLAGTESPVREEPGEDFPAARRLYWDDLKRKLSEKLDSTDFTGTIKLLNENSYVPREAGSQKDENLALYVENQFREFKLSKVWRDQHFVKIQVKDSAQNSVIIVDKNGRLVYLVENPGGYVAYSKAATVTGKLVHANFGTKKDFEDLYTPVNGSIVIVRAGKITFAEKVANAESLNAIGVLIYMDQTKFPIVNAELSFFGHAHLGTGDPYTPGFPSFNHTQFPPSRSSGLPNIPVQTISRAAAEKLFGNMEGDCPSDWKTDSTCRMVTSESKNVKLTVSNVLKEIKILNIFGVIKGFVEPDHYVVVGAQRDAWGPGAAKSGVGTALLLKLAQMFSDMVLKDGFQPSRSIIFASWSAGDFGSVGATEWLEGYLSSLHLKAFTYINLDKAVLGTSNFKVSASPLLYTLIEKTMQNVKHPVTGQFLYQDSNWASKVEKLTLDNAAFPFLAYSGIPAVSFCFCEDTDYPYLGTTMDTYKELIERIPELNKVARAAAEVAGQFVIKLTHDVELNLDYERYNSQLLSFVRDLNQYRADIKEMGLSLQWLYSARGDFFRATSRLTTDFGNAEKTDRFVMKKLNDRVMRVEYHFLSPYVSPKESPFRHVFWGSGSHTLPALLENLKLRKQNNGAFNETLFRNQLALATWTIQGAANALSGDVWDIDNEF

B1: Clone 8.76 (VNAR)
VNAR: ARVDQTPQTITKETGESLTINCVLRDSNCALPSTYWYRKKSGSTNEESISKGGRYVETVNSGSKSFSLRINDLTVEDSGTYRCKVQEELSSILRGCNYRKHDVYGDGTAVTVNA
notes: VNAR on phage; Clone 8 framework
For B1, the values for the A450 in assay [1] and in assay [2] were 0.059 A450 and 0.05 A450, respectively.

B2: Clone 8.109 (VNAR)
VNAR: B1 VNAR with Q86I, E87A, E88Q, R99T, K100L, H101Y
notes: as for B1
Consider B2, for which the A450 worked out at 0.051 A450 in assay [1] and 0.055 A450 in assay [2].

B3: Clone 8.115 (VNAR)
VNAR: B1 VNAR with Q86I, E87A, E88L, L89H, S90R
notes: as for B1
B3: the A450 stood at 0.049 A450 in assay [1] and 0.047 A450 in assay [2].

B4: Clone 8.87 (VNAR)
VNAR: B1 VNAR with Q86I, E87A, E88Q, L89F, R94C, G95S, N97R
notes: as for B1
Turning to B4, the A450 is 0.055 A450 in assay [1] and 0.07 A450 in assay [2].

B5: Clone 8.88 (VNAR)
VNAR: B1 VNAR with Q86I, E87A, E88Q, R94F, N97A
notes: as for B1
As to B5, the A450 amounted to 0.055 A450 in assay [1] and 0.05 A450 in assay [2].

B6: Clone 8.119 (VNAR)
VNAR: B1 VNAR with Q86I, E87A, E88Q, I92V, L93F, R94I
notes: as for B1
As for B6, the A450 in assay [1] came to 0.049 A450; in assay [2], 0.045 A450.

B7: Clone 8.77 (VNAR)
VNAR: B1 VNAR with Q86I, E87A, E88Q, N97H, Y98L, R99W
notes: as for B1
For B7, the A450 turned out to be 0.058 A450 in assay [1] and 0.055 A450 in assay [2].

B8: Clone 8.116 (VNAR)
VNAR: B1 VNAR with Q86I, E87A, E88Q, S90N, S91H, I92Y
notes: as for B1
With B8, the A450 was found to be 0.049 A450 in assay [1] and 0.066 A450 in assay [2].

B9: Clone 8.113 (VNAR)
VNAR: B1 VNAR with Q86I, E87A, E88Q, I92Y, L93R, R94P
notes: VNAR on phage; Clone 8 framework; same CDR3 as 8.120
Take B9: the A450 is 0.05 A450 in assay [1] and 0.051 A450 in assay [2].

B10: Clone 8.98 (VNAR)
VNAR: B1 VNAR with Q86L, E88K
notes: as for B1
With B10, the results for the A450 in assay [1] and in assay [2] were 0.053 A450 and 0.055 A450, respectively.

B11: Clone 8.107 (VNAR)
VNAR: B1 VNAR with Q86I, E87A, E88Q, R94F, R99F, H101N
notes: as for B1
Consider B11, for which the values for the A450 in assay [1] and in assay [2] were 0.051 A450 and 0.048 A450, respectively.

B12: Clone 8.79 (VNAR)
VNAR: B1 VNAR with Q86M, E87N, E88Q, S90D, S91H, I92F
notes: as for B1
Take B12: the values for the A450 in assay [1] and in assay [2] were 0.058 A450 and 0.061 A450, respectively.

B13: Clone 8.102 (VNAR)
VNAR: B1 VNAR with Q86I, E87A, E88Q, N97A, Y98G, R99V
notes: as for B1
In the case of B13, the values for the A450 in assay [1] and in assay [2] were 0.052 A450 and 0.049 A450, respectively.

B14: Clone 8.84 (VNAR)
VNAR: B1 VNAR with Q86I, E87A, E88W, L89Q
notes: as for B1
Take B14: the A450 turned out to be 0.057 A450 in assay [1] and 0.058 A450 in assay [2].

B15: Clone 8.105 (VNAR)
VNAR: B1 VNAR with Q86V, E87A, E88L, L89Q, S90E
notes: as for B1
As to B15, the A450 in assay [1] was 0.051 A450; in assay [2] it was 0.047 A450.

B16: Clone 8.108 (VNAR)
VNAR: B1 VNAR with Q86I, E87A, E88Q, R99K, K100N, H101V
notes: as for B1
As to B16, the values for the A450 in assay [1] and in assay [2] were 0.051 A450 and 0.044 A450, respectively.

B17: Clone 8.78 (VNAR)
VNAR: B1 VNAR with Q86I, E87A, E88Q, I92V, L93V, R94I, R99S
notes: as for B1
Turning to B17, the A450 is 0.058 A450 in assay [1] and 0.049 A450 in assay [2].

B18: Clone 8.90 (VNAR)
VNAR: B1 VNAR with Q86I, E87A, E88Q, R99L, K100Y, H101I
notes: as for B1
With B18, the A450 in assay [1] stood at 0.055 A450; in assay [2], 0.054 A450.

B19: Clone 8.104 (VNAR)
VNAR: B1 VNAR with Q86I, E87A, E88Q, I92R, L93E, R94L
notes: VNAR on phage; Clone 8 framework; same CDR3 as 8.133
With B19, the A450 in assay [1] worked out at 0.052 A450; in assay [2], 0.05 A450.

B20: Clone 8.94 (VNAR)
VNAR: B1 VNAR with Q86I, E87A, E88D, L89V, S90G
notes: as for B1
As for B20, the A450 in assay [1] was 0.054 A450; in assay [2], 0.06 A450.

B21: Clone 8.120 (VNAR)
VNAR: B1 VNAR with Q86I, E87A, E88Q, I92Y, L93R, R94P
notes: VNAR on phage; Clone 8 framework; same CDR3 as 8.113
Take B21: the A450 is 0.049 A450 in assay [1] and 0.048 A450 in assay [2].

B22: Clone 8.91 (VNAR)
VNAR: B1 VNAR with Q86I, E87A, E88Q, I92R, L93K, R94G
notes: as for B1
In the case of B22, the A450 in assay [1] was 0.055 A450; in assay [2], 0.071 A450.

B23: Clone 8.82 (VNAR)
VNAR: B1 VNAR with Q86I, E87A, E88Q, N97V, R99P
notes: as for B1
Turning to B23, the values for the A450 in assay [1] and in assay [2] were 0.057 A450 and 0.048 A450, respectively.

B24: Clone 8.80 (VNAR)
VNAR: B1 VNAR with Q86I, E87A, E88Q, S90P, S91H, I92D
notes: as for B1
With B24, the A450 in assay [1] was found to be 0.057 A450; in assay [2] it was 0.059 A450.

B25: Clone 8.112 (VNAR)
VNAR: B1 VNAR with Q86I, E87A, E88Q, I92V, L93Y, R94K
notes: as for B1
For the molecule B25, the A450 in assay [1] and in assay [2] was 0.05 A450 each time.

B26: Clone 8.83 (VNAR)
VNAR: B1 VNAR with Q86I, E87A, E88Q, L93R, R94A
notes: as for B1
In the case of B26, the A450 in assay [1] stood at 0.057 A450; in assay [2], 0.046 A450.

B27: Clone 8.117 (VNAR)
VNAR: B1 VNAR with Q86I, E87A, E88Q, R94A, G95L, N97M
notes: as for B1
On to B27, for which the A450 came out at 0.049 A450 in assay [1] and 0.056 A450 in assay [2].

B28: Clone 8.122 (VNAR)
VNAR: B1 VNAR with Q86I, E87A, E88Q, K100A, H101S
notes: as for B1
Regarding B28, the A450 in assay [1] is 0.048 A450; in assay [2] it was 0.047 A450.

B29: Clone 8.93 (VNAR)
VNAR: B1 VNAR with Q86I, E87A, E88Q, L89Q
notes: as for B1
Take B29: the A450 in assay [1] amounted to 0.055 A450; in assay [2], 0.05 A450.

B30: Clone 8.96 (VNAR)
VNAR: B1 VNAR with Q86I, E87A, E88Q, I92M, L93Y, R94K
notes: as for B1
For the molecule B30, the A450 in assay [1] is 0.054 A450; in assay [2] it was 0.051 A450.

B31: Clone 8.81 (VNAR)
VNAR: B1 VNAR with Q86I, E87A, E88Q, I92A, L93P, R94D
notes: as for B1
On to B31, for which the A450 in assay [1] came out at 0.057 A450; in assay [2], 0.065 A450.

B32: Clone 8.95 (VNAR)
VNAR: B1 VNAR with Q86I, E87A, E88Q, R94L, G95K, N97E
notes: as for B1
Consider B32, for which the A450 in assay [1] came out at 0.054 A450; in assay [2] it was 0.049 A450.

B33: Clone 8.123 (VNAR)
VNAR: B1 VNAR with Q86I, E87A, E88Q, L93M, R99I, K100M, H101R
notes: as for B1
For B33, the A450 in assay [1] and in assay [2] was 0.048 A450 in each case.

B34: Clone 8.101 (VNAR)
VNAR: B1 VNAR with Q86I, E87A, E88Q, S90H, S91T, I92H
notes: as for B1
On to B34, for which the results for the A450 in assay [1] and in assay [2] were 0.052 A450 and 0.048 A450, respectively.

B35: Clone 8.110 (VNAR)
VNAR: B1 VNAR with Q86I, E87A, E88Q, S90K, S91W, I92G
notes: as for B1
Turning to B35, the A450 was 0.05 A450 in assay [1] and 0.055 A450 in assay [2].

B36: Clone 8.89 (VNAR)
VNAR: B1 VNAR with Q86I, E87A, E88Q, R94F, N97D
notes: as for B1
B36: the A450 in assay [1] is 0.055 A450; in assay [2], 0.048 A450.

B37: Clone 8.114 (VNAR)
VNAR: B1 VNAR with Q86I, E87A, E88Q, L89P, R99G, H101L
notes: as for B1
On to B37, for which the A450 is 0.05 A450 in assay [1] and 0.058 A450 in assay [2].

B38: Clone 8.100 (VNAR)
VNAR: B1 VNAR with Q86P, E87H, E88M
notes: as for B1
With B38, the A450 came out at 0.053 A450 in assay [1] and 0.048 A450 in assay [2].

B39: Clone 8.118 (VNAR)
VNAR: B1 VNAR with Q86I, E87A, E88Q, I92R, L93A, R94M
notes: as for B1
Take B39: the A450 in assay [1] is 0.049 A450; in assay [2], 0.051 A450.

B40: Clone 8.121 (VNAR)
VNAR: B1 VNAR with Q86I, E87A, E88T, S90G
notes: as for B1
With B40, the A450 in assay [1] and in assay [2] was 0.049 A450 each time.

B41: Clone 8.111 (VNAR)
VNAR: B1 VNAR with Q86I, E87A, E88Q, R99D, K100V, H101N
notes: as for B1
B41: the A450 in assay [1] is 0.05 A450; in assay [2], 0.056 A450.

B42: Clone 8.92 (VNAR)
VNAR: B1 VNAR with Q86I, E87A, E88Q, S90T, S91Q, I92W
notes: as for B1
B42: the A450 in assay [1] came out at 0.055 A450; in assay [2] it was 0.051 A450.

B43: Clone 8.85 (VNAR)
VNAR: B1 VNAR with Q86I, E87A, E88Q, S90R, S91K, I92K
notes: as for B1
For the molecule B43, the A450 in assay [1] was 0.056 A450; in assay [2], 0.059 A450.

B44: Clone 8.86 (VNAR)
VNAR: B1 VNAR with Q86I, E87A, E88Q, R94V, G95N, N97F
notes: as for B1
Turning to B44, the A450 in assay [1] was found to be 0.056 A450; in assay [2], 0.053 A450.

B45: Clone 8.103 (VNAR)
VNAR: B1 VNAR with Q86I, E87A, E88Q, N97K, Y98Q, R99F, K100E, H101Y
notes: as for B1
On to B45, for which the A450 in assay [1] stood at 0.052 A450; in assay [2], 0.05 A450.

B46: Clone 8.106 (VNAR)
VNAR: B1 VNAR with Q86V, E87A, E88Q, I92H, L93Y, R94D
notes: as for B1
Turning to B46, the A450 in assay [1] came to 0.051 A450; in assay [2], 0.054 A450.

B47: Clone 8.99 (VNAR)
VNAR: B1 VNAR with Q86L, E87F, E88D
notes: as for B1
B47: the A450 in assay [1] came out at 0.053 A450; in assay [2], 0.059 A450.

The values are drawn from patent US20210395381A1 (OSSIANIX, published 2021).
